This note sets out measurements from PMC10397247.

One experiment addresses T1, 4H2586-bH.
T1 chain: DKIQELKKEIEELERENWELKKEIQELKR
In words: two-hybrid library CCNG1.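 Also: natural log of median RNA to DNA barcode read ratio; higher means stronger binding.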

Another experiment deals with T2, 4H3926-bH.
T2 chain: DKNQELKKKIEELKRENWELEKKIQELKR
Description: two-hybrid library CCNG1.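 Also: natural log of median RNA to DNA barcode read ratio; higher means stronger binding.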

The target in a further experiment is T3, 4H4073-bH.
T3 chain: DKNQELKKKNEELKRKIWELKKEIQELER
In words: two-hybrid library CCNG1.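 Also: natural log of median RNA to DNA barcode read ratio; higher means stronger binding.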

For another experiment, the target named is T4, 4H683-bH.
T4 chain: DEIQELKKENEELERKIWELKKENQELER
In words: two-hybrid library CCNG1.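 Also: natural log of median RNA to DNA barcode read ratio; higher means stronger binding.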

The target in another experiment is T5, 4H918-bH.
T5 chain: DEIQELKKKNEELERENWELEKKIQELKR
Description: two-hybrid library CCNG1.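 Also: natural log of median RNA to DNA barcode read ratio; higher means stronger binding.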

The target of a further experiment is T6, 4H3354-bH.
T6 chain: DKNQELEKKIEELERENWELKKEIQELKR
In words: two-hybrid library CCNG1.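 Also: natural log of median RNA to DNA barcode read ratio; higher means stronger binding.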

The next experiment addresses T7, 4H370-bN.
T7 chain: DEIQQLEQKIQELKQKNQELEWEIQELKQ
In words: two-hybrid library CCNG1.

A further experiment has as its target T8, 4H953-bH.
T8 chain: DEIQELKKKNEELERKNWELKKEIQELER
In words: two-hybrid library CCNG1.

Another experiment deals with T9, 4H2673-bH.
T9 chain: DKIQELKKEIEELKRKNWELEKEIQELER
In words: two-hybrid library CCNG1.

In another experiment the target is T10, 4H797-bH.
T10 chain: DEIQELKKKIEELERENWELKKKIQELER
In words: two-hybrid library CCNG1.

Another experiment concerns the target T11, 4H3010-bH.
T11 chain: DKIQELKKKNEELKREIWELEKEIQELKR
In words: two-hybrid library CCNG1.

The next experiment concerns the target T12, 4H2702-bH.
T12 chain: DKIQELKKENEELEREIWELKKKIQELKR
Description: two-hybrid library CCNG1.

A further experiment addresses T13, 4H575-bH.
T13 chain: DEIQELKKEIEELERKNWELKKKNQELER
In words: two-hybrid library CCNG1.

For the next experiment, the target named is T14, 4H780-bH.
T14 chain: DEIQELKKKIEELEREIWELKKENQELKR
In words: two-hybrid library CCNG1.

In a further experiment the target is T15, 4H968-bH.
T15 chain: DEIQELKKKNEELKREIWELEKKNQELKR
In words: two-hybrid library CCNG1.

For another experiment, the target named is T16, 4H855-bH.
T16 chain: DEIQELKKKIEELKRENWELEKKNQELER
Description: two-hybrid library CCNG1.

In another experiment the target is T17, 4H2627-bH.
T17 chain: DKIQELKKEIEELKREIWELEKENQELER
In words: two-hybrid library CCNG1.

In another experiment the target is T18, 4H457-bH.
T18 chain: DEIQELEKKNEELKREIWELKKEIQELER
In words: two-hybrid library CCNG1.

In the next experiment the target is T19, 4H3427-bH.
T19 chain: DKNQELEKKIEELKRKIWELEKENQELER
In words: two-hybrid library CCNG1.

The target in another experiment is T20, 4H754-bH.
T20 chain: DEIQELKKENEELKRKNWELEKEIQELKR
Description: two-hybrid library CCNG1.

The target in another experiment is T21, 4H3112-bH.
T21 chain: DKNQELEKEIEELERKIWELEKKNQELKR
In words: two-hybrid library CCNG1.

For another experiment, the target named is T22, 4H346-bH.
T22 chain: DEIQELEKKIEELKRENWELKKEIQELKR
Description: two-hybrid library CCNG1.

In a further experiment the target is T23, 4H496-bA.
T23 chain: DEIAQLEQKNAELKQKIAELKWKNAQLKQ
Description: two-hybrid library CCNG1.

The next experiment has as its target T24, 4H3632-bA.
T24 chain: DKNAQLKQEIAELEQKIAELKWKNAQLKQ
Description: two-hybrid library CCNG1.

For a further experiment, the target named is T25, 4H754-bA.
T25 chain: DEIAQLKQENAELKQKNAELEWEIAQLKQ
Description: two-hybrid library CCNG1.

The target of another experiment is T26, 4H968-bA.
T26 chain: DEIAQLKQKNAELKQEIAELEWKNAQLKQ
In words: two-hybrid library CCNG1.

In the next experiment the target is T27, 4H457-bA.
T27 chain: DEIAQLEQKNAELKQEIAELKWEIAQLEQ
Description: two-hybrid library CCNG1.

The next experiment deals with T28, 4H575-bA.
T28 chain: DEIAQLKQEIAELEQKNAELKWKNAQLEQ
Description: two-hybrid library CCNG1.

The target in another experiment is T29, 4H918-bA.
T29 chain: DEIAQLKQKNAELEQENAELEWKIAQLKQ
Description: two-hybrid library CCNG1.

The target of a further experiment is T30, 4H953-bA.
T30 chain: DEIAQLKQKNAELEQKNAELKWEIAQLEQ
Description: two-hybrid library CCNG1.

The next experiment deals with T31, 4H855-bA.
T31 chain: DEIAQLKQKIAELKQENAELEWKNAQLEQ
In words: two-hybrid library CCNG1.

A further experiment addresses T32, 4H780-bA.
T32 chain: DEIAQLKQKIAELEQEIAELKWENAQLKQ
Description: two-hybrid library CCNG1.

The target in a further experiment is T33, 4H683-bA.
T33 chain: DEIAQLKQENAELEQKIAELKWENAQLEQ
In words: two-hybrid library CCNG1.

Another experiment concerns the target T34, 4H797-bA.
T34 chain: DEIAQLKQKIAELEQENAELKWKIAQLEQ
Description: two-hybrid library CCNG1.

A further experiment has as its target T35, 4H949-bN.
T35 chain: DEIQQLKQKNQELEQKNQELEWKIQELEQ
Description: two-hybrid library CCNG1.

A further experiment addresses T36, 4H4073-bA.
T36 chain: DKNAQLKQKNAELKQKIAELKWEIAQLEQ
Description: two-hybrid library CCNG1.

The target of the next experiment is T37, P3mSN.
T37 chain: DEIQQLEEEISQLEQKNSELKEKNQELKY
Description: two-hybrid library CCNG1.

The target of another experiment is T38, 4H48-bA.
T38 chain: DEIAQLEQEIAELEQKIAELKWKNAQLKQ
In words: two-hybrid library CCNG1.

For another experiment, the target named is T39, 4H918-bN.
T39 chain: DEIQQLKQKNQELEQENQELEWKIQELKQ
In words: two-hybrid library CCNG1.

A further experiment addresses T40, 4H491-bA.
T40 chain: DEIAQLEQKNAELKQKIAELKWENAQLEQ
Description: two-hybrid library CCNG1.

The next experiment deals with T41, O3.
T41 chain: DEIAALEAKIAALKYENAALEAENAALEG
In words: two-hybrid library CCNG1.

In a further experiment the target is T42, 4H342-bA.
T42 chain: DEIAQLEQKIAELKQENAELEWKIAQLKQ
Description: two-hybrid library CCNG1.

A further experiment deals with T43, P6mS.
T43 chain: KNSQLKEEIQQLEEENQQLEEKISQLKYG
Description: two-hybrid library CC1. Particulars: mean of both orientations.

The target in a further experiment is T44, P8.
T44 chain: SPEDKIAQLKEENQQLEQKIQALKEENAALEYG
In words: two-hybrid library CC1. The conditions noted are these: mean of both orientations.

For another experiment, the target named is T45, P7.
T45 chain: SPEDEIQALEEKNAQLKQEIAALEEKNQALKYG
Description: two-hybrid library CC1. Particulars: mean of both orientations.

Another experiment concerns the target T46, P6.
T46 chain: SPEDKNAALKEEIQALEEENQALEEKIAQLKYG
In words: two-hybrid library CC1. The conditions noted are these: mean of both orientations.

In the next experiment the target is T47, P6SC1.
T47 chain: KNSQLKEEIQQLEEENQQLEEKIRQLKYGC
Description: two-hybrid library CC1. The conditions noted are these: mean of both orientations.

A further experiment has as its target T48, P5SC2.
T48 chain: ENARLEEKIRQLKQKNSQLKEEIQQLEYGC
Description: two-hybrid library CC1. Particulars: mean of both orientations.

The target of another experiment is T49, P5mS.
T49 chain: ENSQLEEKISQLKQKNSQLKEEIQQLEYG
In words: two-hybrid library CC1. The conditions noted are these: mean of both orientations.

A further experiment addresses T50, P5SC1.
T50 chain: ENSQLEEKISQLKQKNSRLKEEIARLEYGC
Description: two-hybrid library CC1. The conditions noted are these: mean of both orientations.

For the next experiment, the target named is T51, P6SC2.
T51 chain: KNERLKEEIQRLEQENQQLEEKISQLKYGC
In words: two-hybrid library CC1. The conditions noted are these: mean of both orientations.

Another experiment addresses T52, P8mS.
T52 chain: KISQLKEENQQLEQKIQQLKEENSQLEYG
Description: two-hybrid library CC1. Particulars: mean of both orientations.

The target of a further experiment is T53, P4mS.
T53 chain: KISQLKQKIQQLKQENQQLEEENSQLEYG
In words: two-hybrid library CC1.

The next experiment addresses T54, P9.
T54 chain: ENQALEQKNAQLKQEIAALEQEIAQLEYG
In words: two-hybrid library CC1. The conditions noted are these: mean of both orientations.

A further experiment has as its target T55, P5.
T55 chain: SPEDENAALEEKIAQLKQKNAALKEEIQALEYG
Description: two-hybrid library CC1. The conditions noted are these: mean of both orientations.

The target of the next experiment is T56, P7mS.
T56 chain: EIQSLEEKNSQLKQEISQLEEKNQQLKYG
Description: two-hybrid library CC1. The conditions noted are these: mean of both orientations.

The target of another experiment is T57, P8mSN.
T57 chain: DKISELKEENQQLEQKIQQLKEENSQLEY
In words: two-hybrid library CCNG1.

The target of the next experiment is T58, P5mSN.
T58 chain: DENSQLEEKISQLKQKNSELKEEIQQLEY
Description: two-hybrid library CCNG1.

The target in a further experiment is T59, P6mSN.
T59 chain: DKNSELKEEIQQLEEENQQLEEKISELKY
Description: two-hybrid library CCNG1.

A further experiment deals with T60, P7mSN.
T60 chain: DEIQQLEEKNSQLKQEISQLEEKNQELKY
In words: two-hybrid library CCNG1.

A further experiment addresses T61, P9mSN.
T61 chain: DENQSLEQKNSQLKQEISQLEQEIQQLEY
In words: two-hybrid library CCNG1.

DKIQELKKEIEELERENWELKKEIQELKR [4H2586-bH]: the interaction score with 4H2586-bH was 1.34; with 4H3926-bH, 1.73; in the experiment with 4H4073-bH, 0.357; in the experiment with 4H683-bH, 0.126; with 4H918-bH, -0.131; with 4H3354-bH, 0.825. Besides, the interaction score is 0.548 in the experiment with 4H370-bN; 0.313 with 4H953-bH; 1.76 in the experiment with 4H2673-bH; 0.65 with 4H797-bH; 0.779 in the experiment with 4H3010-bH; 0.0111 in the experiment with 4H2702-bH. Moreover, the interaction score with 4H575-bH is 0.499; with 4H780-bH, -1.12; in the experiment with 4H968-bH, -0.864; in the experiment with 4H855-bH it was 0.679; with 4H2627-bH, 0.688; in the experiment with 4H457-bH, -0.749. Besides, the interaction score with 4H3427-bH was 0.762; with 4H754-bH, -0.599; in the experiment with 4H3112-bH it was -1.96; in the experiment with 4H346-bH, 0.563.
For the molecule DKNAQLKQEIAELEQKIAELKWKNAQLKQ [4H3632-bA], the results for the interaction score with 4H496-bA and with 4H3632-bA were 0.728 and 1.23, respectively.
For the molecule DKNAQLKQKNAELKQKIAELKWEIAQLEQ [4H4073-bA], the interaction score with 4H754-bA was -1.31; in the experiment with 4H968-bA, -1.01; in the experiment with 4H457-bA it was -1.06; with 4H575-bA it was -1.51; in the experiment with 4H918-bA it was -0.789; in the experiment with 4H953-bA it was -1.91. The interaction score is -1.17 with 4H855-bA; -1.4 with 4H780-bA; -0.684 with 4H683-bA; -1.27 in the experiment with 4H797-bA; -1.71 in the experiment with 4H949-bN; -0.968 in the experiment with 4H4073-bA. Further, the interaction score with P3mSN is -4.32.
As for DEIAQLEQKIAELKQENAELEWKIAQLKQ [4H342-bA], the interaction score in the experiment with 4H496-bA is 2.13; in the experiment with 4H48-bA, 0.0458; with 4H3632-bA, 0.725; in the experiment with 4H918-bN it was -0.0267; with 4H491-bA, 1.5; with O3, -1.6. The interaction score with 4H342-bA came out at 1.64.
Take KISQLKQKIQQLKQENQQLEEENSQLEYG [P4mS]: the interaction score with P6mS is -3; with P8, -2.9; in the experiment with P7, -2.78; in the experiment with P6, -2.75; with P6SC1 it was -2.65; in the experiment with P5SC2, -2.82. Besides, the interaction score with P5mS was -2.9; with P5SC1, -2.92; in the experiment with P6SC2, -2.64; with P8mS, -2.9; with P4mS, -3.22; with P9 it was -2.65. The interaction score was -3.02 in the experiment with P5 and -2.94 in the experiment with P7mS.
As to DEIQQLEEEISQLEQKNSELKEKNQELKY [P3mSN], the interaction score with P8mSN was -0.172; with P5mSN it was -0.781; with P6mSN, -0.522; with P7mSN, -0.239; with P9mSN, -0.0425; with P3mSN it was -0.0204.
